This is an account of results in US20260116920A1 (PEPTIDREAM, published 2026).

As usually defined, the KD is the equilibrium constant for the complex coming apart. Low values mean higher affinity, high ones lower affinity.

Starred links: 1 amine or outer side, 2 acyl side, 3 side chain; linkers in the order of their positions; H or OH if unused. Positions of bridges follow the written chain, without caps; N, C: chain ends. Non-standard residues stand in square brackets, D forms with d. Primed or numbered codes have the meaning given here. No end group written: not given here. E(PEG8Me) = (S)-30-amino-27-oxo-2,5,8,11,14,17,20,23-octaoxa-26-azahentriacontane-31-oic acid, COCCOCCOCCOCCOCCOCCOCCOCCNC(=O)CC[C@H](N[*:1])C(=O)[*:2]; Phe(4-OMe)(3) = (S)-2-amino-3-(4-methoxyphenyl)propanoic acid (source code F4OMe), COc1ccc(C[C@H](N[*:1])C(=O)[*:2])cc1; F4aao = (S)-2-amino-3-(4-(carboxymethoxy)phenyl)propanoic acid, O=C([C@H](Cc1ccc(OCC(=O)[*:3])cc1)N[*:1])[*:2]; Trp(1-CH2CO) = O=C([C@H](Cc1cn(CC(=O)[*:3])c2ccccc12)N[*:1])[*:2]; Phe(3-COOH) = N[C@@H](Cc1cccc(C(=O)O)c1)C(=O)O; Trp(7-aza) = N[C@@H](Cc1c[nH]c2ncccc12)C(=O)O; NMePhe(3-Cl) = CN[C@@H](Cc1cccc(Cl)c1)C(=O)O; 3Pal(6-NH2) = Nc1ccc(C[C@H](N)C(=O)O)cn1; NMe3Pal = CN[C@@H](Cc1cccnc1)C(=O)O; NMe4Pal = CN[C@@H](Cc1ccncc1)C(=O)O; NMeY = CN[C@@H](Cc1ccc(O)cc1)C(=O)O; 3Pal = N[C@@H](Cc1cccnc1)C(=O)O; 4Pal = N[C@@H](Cc1ccncc1)C(=O)O

The target of the test is T1, human transferrin receptor (hTfR) (human, UniProt P02786 89-760).
T1 construct: used as 0.5 uM hTfR dimer solution, immobilised on an NTA sensor chip (Ni capture plus EDC/NHS coupling); also called human TfR; TfR1
T1 sequence (P02786 89-760 limits assumed): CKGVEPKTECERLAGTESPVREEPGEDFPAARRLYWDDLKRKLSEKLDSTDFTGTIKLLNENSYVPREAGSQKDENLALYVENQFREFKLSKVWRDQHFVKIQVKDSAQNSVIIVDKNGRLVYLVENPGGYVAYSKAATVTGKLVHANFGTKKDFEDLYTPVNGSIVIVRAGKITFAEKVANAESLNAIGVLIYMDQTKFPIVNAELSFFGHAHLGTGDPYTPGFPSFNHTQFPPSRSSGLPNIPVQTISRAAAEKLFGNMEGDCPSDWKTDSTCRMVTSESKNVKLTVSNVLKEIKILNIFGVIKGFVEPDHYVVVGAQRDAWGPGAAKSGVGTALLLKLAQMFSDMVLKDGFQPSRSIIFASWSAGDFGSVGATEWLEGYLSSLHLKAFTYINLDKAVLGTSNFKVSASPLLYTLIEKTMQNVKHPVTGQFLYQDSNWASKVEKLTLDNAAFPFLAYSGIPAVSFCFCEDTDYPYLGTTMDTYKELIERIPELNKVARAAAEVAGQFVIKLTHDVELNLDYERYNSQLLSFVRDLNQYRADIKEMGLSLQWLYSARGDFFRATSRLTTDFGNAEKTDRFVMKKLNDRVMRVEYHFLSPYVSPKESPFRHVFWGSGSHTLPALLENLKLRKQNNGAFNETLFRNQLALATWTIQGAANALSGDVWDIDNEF
The test can be described thus: SPR; B = KD 1-100 nM. On the procedure: NTA sensor chip (Global Life Sciences Technologies Japan K.K.) was inserted into BiacoreT200 (Global Life Sciences Technologies Japan K.K.), then the priming operation was performed three times by using running buffer containing: 10 mM HEPES pH 8.0 (Nacalai Tesque, Inc.), 150 mM NaCl (Nacalai Tesque, Inc.), 0.05% Tween 20 (Nacalai Tesque, Inc.), 0.1% BSA (SIGMA-ALDRICH) and 1.0% DMSO (FUJIFILM Wako Pure Chemical Corporation), and equilibrated at a flow rate of 30 μL/min. 350 mM EDTA solution was reacted at a flow rate of 10 μL/min for 60 seconds, 0.5 mM […] solution (Kishida Chemical Co., Ltd.) was reacted at a flow rate of 10 μL/min for 60 seconds, and then the NTA sensor chip was washed with 3 mM EDTA solution (Nacalai Tesque, Inc.) at a flow rate of 10 μL/min for 60 seconds. After mixing 50 μL each of 60 mM EDC solution (Global Life Science Technologies Japan K.K.) and 650 mM NHS solution (Global Life Science Technologies Japan K.K.), the reaction was carried out at a flow rate of 10 μL/min for 420 seconds. 150 μL of 0.5 μM hTfR dimer solution was prepared by dilution with running buffer and reacted at a flow rate of 10 μL/min for 300 seconds to immobilize hTfR on the NTA sensor chip. For the human transferrin receptor (hTfR), recombinant hTfR described in Example 2 of WO2018/124121 was used. After immobilization, capping was performed by reacting with 1.0 M ethanolamine solution (Global Life Sciences Technologies Japan K.K.) at a flow rate of 10 μL/min for 420 seconds. Peptide lysate prepared in DMSO solution to 10 mM was diluted with running buffer to be a final concentration of 10 μM peptide lysate, then peptide solutions of 100 nM, 50 nM, 25 nM, 10 nM, and 5 nM were prepared. Using the above samples, the kinetics of the peptide against hTfR was obtained by SPR measurement.
The kinetic evaluation model was single-cycle kinetics, and curve fitting was performed using Biacore T200 Evaluation Software Version 3.0 (Global Life Science Technologies Japan K.K.). The binding of the peptide to hTfR was evaluated by performing curve fitting on the obtained sensorgram by least squares method and obtaining the KD value.
As to {CH2CO}-AV[NMePhe(3-Cl)]VWNY[4Pal]IIRRF[NMeY]C-NH2 (thioether N-15; also: linker PEG4c) [894_0319], the KD lay within 1 to 100 nM.
In the case of Ac-AV[NMePhe(3-Cl)]V[Trp(1-CH2CO)]NY[F4aao]IIRR[4Pal][NMeY]C (thioether (positions not given here); not fully specified (C-terminus, bridges)) [894_0343] it was 1 to 100 nM; in that of Ac-AV[NMePhe(3-Cl)]V[Trp(1-CH2CO)]NY[3Pal]IIR[E(PEG8Me)]F[NMeY]C (thioether (positions not given here); not fully specified (C-terminus, bridges)) [894_0340], 1 to 100 nM; in that of Ac-AV[NMePhe(3-Cl)]V[Trp(1-CH2CO)]N[3Pal(6-NH2)][F4aao]IIRRF[NMeY]C (thioether (positions not given here); not fully specified (C-terminus, bridges)) [894_0337], 1 to 100 nM.
In the case of Ac-AV[NMePhe(3-Cl)]V[Trp(1-CH2CO)]N[3Pal(6-NH2)][Phe(4-OMe)(3)]IIRR[Phe(3-COOH)][NMeY]C (thioether (positions not given here); not fully specified (C-terminus, bridges)) [894_0339] it was 1 to 100 nM.
The result for Ac-AV[NMePhe(3-Cl)]V[Trp(1-CH2CO)]NY[3Pal]IIRR[Phe(3-COOH)][NMeY]C (thioether (positions not given here); not fully specified (C-terminus, bridges)) [894_0341] reads 1 to 100 nM; that for Ac-AV[NMePhe(3-Cl)]VWNY[Phe(4-OMe)(3)]IIRR[4Pal][NMe3Pal]C (thioether (positions not given here); not fully specified (C-terminus, bridges)) [894_0325], 1 to 100 nM; that for {CH2CO}-AV[NMePhe(3-Cl)]VWN[3Pal(6-NH2)][4Pal]IIRR[4Pal][NMeY]C-NH2 (thioether N-15; also: linker PEG4c) [894_0320], 1 to 100 nM.
For Ac-AV[NMe4Pal]VWN[3Pal(6-NH2)][Phe(4-OMe)(3)]IIRRF[NMeY]C (thioether (positions not given here); not fully specified (C-terminus, bridges)) [894_0323], the KD fell in the range of 1 to 100 nM.
In the case of Ac-AV[NMePhe(3-Cl)]V[Trp(7-aza)]NY[Phe(4-OMe)(3)]IIRR[4Pal][NMeY]C (thioether (positions not given here); not fully specified (C-terminus, bridges)) [894_0324] it was 1 to 100 nM; in that of Ac-AV[NMePhe(3-Cl)]V[Trp(1-CH2CO)]NY[Phe(4-OMe)(3)]IIR[E(PEG8Me)]F[NMeY]C (thioether (positions not given here); not fully specified (C-terminus, bridges)) [894_0334], 1 to 100 nM.
As to Ac-AV[NMe3Pal]VWN[3Pal(6-NH2)][Phe(4-OMe)(3)]IIRRF[NMeY]C (thioether (positions not given here); not fully specified (C-terminus, bridges)) [894_0322], the KD was 1 to 100 nM.
